Target: ephrin-A1-S6 (human ephrin-A1 with an internal S6 peptide tag, GPI-anchored) (human) (UniProt P20827)
Assay: FRET or BRET; heteroFRET by flow cytometry (sensitised emission, compensated; efficiency from median fluorescence intensities); live HEK293 cells in suspension in DPBS + 0.5% BSA, S6-tagged receptor labelled with A547 and A647; for T-cadherin-S6 also followed in time after 10 μg/mL adiponectin

In the case of “ephrin-A1-S6 (human ephrin-A1 with an internal S6 peptide tag, GPI-anchored) (from UniProt P20827 19-182) (ligand)”, the FRET efficacy is reported as 14%.
